Experimental data as given in patent publication US6858210B1, “Therapeutic and diagnostic domain 1 β2GPI polypeptides and methods of using same” (La Jolla Pharmaceutical Co., priority 1998, dated 2005).
Where two headings read alike, the source gives them in different places.

Columns and labels:
rabbit anti-β2GPI = assay: Direct binding ELISA, nickel chelate-coated wells, rabbit antibody; conditions: O.D. at 550 nm
Description: Nickel Chelate-coated microwell plates (NCP 010 00 Xenopore Corp. 374 Midland Ave. Saddle Brook, N.J. USA) were coated with 50 μl of serial dilutions of the various recombinant β2GPI, in PBS, at room temperature for 2 hours. The plates were washed three times with PBS and blocked with 75 μl of a 1% gelatin (Sigma #G-2500) in PBS for one hour room temperature. […] The plates were washed three times with PBS, 50 μl of alkaline phosphatase conjugated anti-immunoglobulin (anti-human IgG, gamma chain specific, Zymed #62-8422) or anti-rabbit IgG (Zymed #62-6122) diluted appropriately in 1% gelatin was added and incubated at 37° C. for one hour. The plates were washed three times with PBS, 50 μl of alkaline phosphatase PPMP chromogenic substrate solution was added and incubated for 30 minutes at room temperature. The optical density, at 550 nm, was determined by reading the plates in a microplate autoreader (Bio-Teck Instruments, model EL311).
Seven to nine different recombinant β2GPI mutant proteins were examined to determine if they could support the direct binding of affinity purified β2GPI-dependent antiphospholipid antibody preparations in the absence of anionic phospholipid. All recombinant mutant β2GPI were assayed with affinity purified β2GPI-dependent antiphospholipid antibody preparations from 11 different patients. Each mutant recombinant β2GPI protein was tested, in a dose dependent fashion and GST-6his was included as a negative control. The recombinant mutant β2GPI proteins were bound to nickel coated microtiter plates via their 6-his tail. All recombinant mutant β2GPI proteins tested bound rabbit anti-β2GPI showing that they were assessable by antibody (FIG. 5).

[1] = system: affinity purified β2GPI-dependent antiphospholipid antibody; assay: Direct binding ELISA, nickel chelate-coated wells charged with recombinant β2GPI proteins (no cardiolipin); set-up: species or system human; conditions: O.D. at 550 nm
Summary of the method: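 His-tagged recombinant β2GPI mutants captured on nickel chelate wells in serial dilution (2 h, room temperature), no anionic phospholipid; GST-6his as negative control. Affinity-purified patient antibodies (11 patients) or rabbit anti-β2GPI detected by alkaline phosphatase anti-IgG, OD 550 nm.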

[2] = system: affinity purified β2GPI-dependent antiphospholipid antibody; assay: Competitive inhibition ELISA: recombinant β2GPI proteins compete for antibody binding to coated full length recombinant β2GPI; set-up: species or system human; conditions: for IC50: read-out: 50% (concentration to give 50% inhibition)
Summary of the method: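 Wells coated with full-length recombinant β2GPI (10 μg/ml, pH 9.5) and milk-blocked. Serially diluted recombinant β2GPI proteins were co-incubated with a fixed concentration of patient antibody for 1 h at 37 °C. Bound IgG detected with alkaline phosphatase anti-human IgG at OD550; percent inhibition is background-corrected against inhibitor-free wells.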

[3] = system: antiphospholipid antibody in plasma from patient 6501; assay: Competitive antibody binding ELISA with patient plasma on β2GPI coated plates; set-up: species or system human; conditions: plasma patient 6501, 1:200
Description: Nunc Maxisorp microplates (Nalge Nunc International, Denmark) were coated with 100 μL/well of β2GPI at 2.5 μg/mL in PBS, incubated for 2 hours at room temperature, and blocked for 2 hours at room temperature with 250 μl/well of 2% nonfat milk with […] (Sigma Chemical Co.). […] After incubation for one hour at room temperature the plates were washed 5× with TBS. To each well was added 100 μL of alkaline phosphatase-conjugated anti-human IgG, gamma chain specific (Zymed) diluted 1:1000 in 2% nonfat milk with 0.4% Tween-80. After one hour at room temperature the plates were washed 5× with TBS. To each well was added 100 μl PPMP chromogenic substrate solution for color development at room temperature. Optical absorbance per well was determined at A550nm in a commercial microplate reader (Bio-Tek Instruments EL3 11).

B1: ---45: recombinant β2GPI deletion mutant with domains 4, 5 (protein)
chain: GREVKCPFPSRPDNGFVNYPAKPTLYYKDKATFGCHDGYSLDGPEEIECTKLGNWSAMPSCKASCKLPVKKATVVYQGERVKIQEKFKNGMLHGDKVSFFCKNKEKKCSYTEDAQCIDGTIEVPKCFKEHSSLAFWKTDASDVKPCGHHHHHH
B1 was tested, and the “Maximum O.D.” value (rabbit anti-β2GPI) was 1.941, the “Maximum O.D.” value ([1]; Ab 6203) was 0.142 and the “Maximum O.D.” value ([1]; Ab 6501) was 0.086. The “Maximum O.D.” value ([1]; Ab 6626) was 0.086, the “Maximum O.D.” value ([1]; Ab 6632) was 0.000 and the “Maximum O.D.” value ([1]; Ab 6641) was 0.112. For the same molecule, the “Maximum O.D.” value ([1]; Ab 6652) was 0.013, the “Maximum O.D.” value ([1]; Ab 6701) was 0.000 and the “Maximum O.D.” value ([1]; Ab 7008) was 0.030. For the same molecule, the “Maximum O.D.” value ([1]; Ab 7015) was 0.167, the “Maximum O.D.” value ([1]; Ab 7101) was 0.167 and the “Max (maximum inhibition observed at concentrations tested)” value ([2]; Ab 6203) was 10%. For the same molecule, the IC50 ([2]; Ab 6203) was greater than 40 µM, the “Max (maximum inhibition observed at concentrations tested)” value ([2]; Ab 6501) was 15% and the IC50 ([2]; Ab 6501) was greater than 40 µM. For the same molecule, the “Max (maximum inhibition observed at concentrations tested)” value ([2]; Ab 6509) was 20%, the IC50 ([2]; Ab 6509) was greater than 5 µM and the “Max (maximum inhibition observed at concentrations tested)” value ([2]; Ab 6626) was 15%. For the same molecule, the IC50 ([2]; Ab 6626) was greater than 40 µM, the “Max (maximum inhibition observed at concentrations tested)” value ([2]; Ab 6632) was 20% and the IC50 ([2]; Ab 6632) was greater than 40 µM. For the same molecule, the “Max (maximum inhibition observed at concentrations tested)” value ([2]; Ab 6641) was 20%, the IC50 ([2]; Ab 6641) was greater than 5 µM and the “Max (maximum inhibition observed at concentrations tested)” value ([2]; Ab 6644) was 10%. The IC50 ([2]; Ab 6644) was greater than 40 µM, the “Max (maximum inhibition observed at concentrations tested)” value ([2]; Ab 6652) was 20% and the IC50 ([2]; Ab 6652) was greater than 5 µM. For the same molecule, the “Max (maximum inhibition observed at concentrations tested)” value ([2]; Ab 6701) was 15%, the IC50 ([2]; Ab 6701) was greater than 5 µM and the “Max (maximum inhibition observed at concentrations tested)” value ([2]; Ab 7008) was 20%. For the same molecule, the IC50 ([2]; Ab 7008) was greater than 40 µM, the “Max (maximum inhibition observed at concentrations tested)” value ([2]; Ab 7015) was 10% and the IC50 ([2]; Ab 7015) was greater than 40 µM. The “Max (maximum inhibition observed at concentrations tested)” value ([2]; Ab 7101) was 5%, the IC50 ([2]; Ab 7101) was greater than 40 µM and the “Max (maximum inhibition observed at concentrations tested)” value ([2]; Ab 7104) was 5%. The IC50 ([2]; Ab 7104) was greater than 40 µM.

B2: Reduced and alkylated domain 1: β2GPI domain 1 polypeptide that had been reduced and alkylated, negative control (protein)
chain: GRTCPKPDDLPFSTVVPLKTFYEPGEEITYSCKPGYVSRGGMRKFICPLTGLWPINTLKCTPRV
modifications: also: reduced and alkylated cysteines, alkylating agent not given here
notes: β2GPI domain 1 polypeptide that had been reduced and alkylated, negative control
With B2 the “competition for antiphospholipid antibody binding to β2GPI” value [3] was “no such competition”.
